Measured values: IntAct's records for PubMed 31515488

B1: Transcription factor 12 (Homo sapiens), Q99081 (parent)
chain: MNPQQQRMAAIGTDKELSDLLDFSAMFSPPVNSGKTRPTTLGSSQFSGSGIDERGGTTSWGTSGQPSPSYDSSRGFTDSPHYSDHLNDSRLGAHEGLSPTPFMNSNLMGKTSERGSFSLYSRDTGLPGCQSSLLRQDLGLGSPAQLSSSGKPGTAYYSFSATSSRRRPLHDSAALDPLQAKKVRKVPPGLPSSVYAPSPNSDDFNRESPSYPSPKPPTSMFASTFFMQDGTHNSSDLWSSSNGMSQPGFGGILGTSTSHMSQSSSYGNLHSHDRLSYPPHSVSPTDINTSLPPMSSFHRGSTSSSPYVAASHTPPINGSDSILGTRGNAAGSSQTGDALGKALASIYSPDHTSSSFPSNPSTPVGSPSPLTGTSQWPRPGGQAPSSPSYENSLHSLQSRMEDRLDRLDDAIHVLRNHAVGPSTSLPAGHSDIHSLLGPSHNAPIGSLNSNYGGSSLVASSRSASMVGTHREDSVSLNGNHSVLSSTVTTSSTDLNHKTQENYRGGLQSQSGTVVTTEIKTENKEKDENLHEPPSSDDMKSDDESSQKDIKVSSRGRTSSTNEDEDLNPEQKIEREKERRMANNARERLRVRDINEAFKELGRMCQLHLKSEKPQTKLLILHQAVAVILSLEQQVRERNLNPKAACLKRREEEKVSAVSAEPPTTLPGTHPGLSETTNPMGHM
partner: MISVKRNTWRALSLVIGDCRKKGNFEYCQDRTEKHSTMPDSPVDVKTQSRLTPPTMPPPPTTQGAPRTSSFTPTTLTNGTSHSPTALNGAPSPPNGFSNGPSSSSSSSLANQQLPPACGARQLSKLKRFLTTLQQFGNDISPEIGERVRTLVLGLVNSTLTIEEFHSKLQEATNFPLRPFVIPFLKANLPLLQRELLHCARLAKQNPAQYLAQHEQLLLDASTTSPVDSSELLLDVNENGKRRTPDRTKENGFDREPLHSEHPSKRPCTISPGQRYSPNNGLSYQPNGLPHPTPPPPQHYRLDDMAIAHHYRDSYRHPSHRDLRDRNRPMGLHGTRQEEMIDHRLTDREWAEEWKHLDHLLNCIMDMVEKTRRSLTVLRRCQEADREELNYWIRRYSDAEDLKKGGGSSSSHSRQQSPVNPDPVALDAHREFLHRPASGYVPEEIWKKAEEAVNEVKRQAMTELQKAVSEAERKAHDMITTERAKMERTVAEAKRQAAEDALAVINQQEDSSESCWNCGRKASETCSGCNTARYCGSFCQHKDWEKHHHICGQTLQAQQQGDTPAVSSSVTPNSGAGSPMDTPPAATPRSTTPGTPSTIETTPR
B2: NF-kappa-B inhibitor delta (Homo sapiens), Q8NI38 (parent)
chain: MEAGPWRVSAPPSGPPQFPAVVPGPSLEVARAHMLALGPQQLLAQDEEGDTLLHLFAARGLRWAAYAAAEVLQVYRRLDIREHKGKTPLLVAAAANQPLIVEDLLNLGAEPNAADHQGRSVLHVAATYGLPGVLLAVLNSGVQVDLEARDFEGLTPLHTAILALNVAMRPSDLCPRVLSTQARDRLDCVHMLLQMGANHTSQEIKSNKTVLHLAVQAANPTLVQLLLELPRGDLRTFVNMKAHGNTALHMAAALPPGPAQEAIVRHLLAAGADPTLRNLENEQPVHLLRPGPGPEGLRQLLKRSRVAPPGLSS
partner: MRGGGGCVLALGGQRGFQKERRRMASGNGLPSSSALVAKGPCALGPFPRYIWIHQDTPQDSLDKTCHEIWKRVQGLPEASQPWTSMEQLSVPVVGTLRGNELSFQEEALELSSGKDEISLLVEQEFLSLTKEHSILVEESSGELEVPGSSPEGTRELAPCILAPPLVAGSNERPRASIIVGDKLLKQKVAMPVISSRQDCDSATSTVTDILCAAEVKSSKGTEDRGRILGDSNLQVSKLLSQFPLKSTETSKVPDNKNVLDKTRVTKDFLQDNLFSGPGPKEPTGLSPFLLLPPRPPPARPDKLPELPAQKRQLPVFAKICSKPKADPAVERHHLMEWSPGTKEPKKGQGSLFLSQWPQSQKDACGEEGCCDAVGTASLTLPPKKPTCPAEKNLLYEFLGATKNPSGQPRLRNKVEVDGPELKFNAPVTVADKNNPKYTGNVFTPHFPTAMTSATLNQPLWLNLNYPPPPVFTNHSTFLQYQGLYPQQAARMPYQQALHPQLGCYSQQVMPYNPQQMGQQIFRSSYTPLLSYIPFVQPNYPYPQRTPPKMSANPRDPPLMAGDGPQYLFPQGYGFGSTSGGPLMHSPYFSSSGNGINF
B3: "Guanine nucleotide-binding protein G(T) subunit gamma-T1" (Homo sapiens), P63211 (parent)
chain: MPVINIEDLTEKDKLKMEVDQLKKEVTLERMLVSKCCEEVRDYVEERSGEDPLVKGIPEDKNPFKELKGGCVIS
partner: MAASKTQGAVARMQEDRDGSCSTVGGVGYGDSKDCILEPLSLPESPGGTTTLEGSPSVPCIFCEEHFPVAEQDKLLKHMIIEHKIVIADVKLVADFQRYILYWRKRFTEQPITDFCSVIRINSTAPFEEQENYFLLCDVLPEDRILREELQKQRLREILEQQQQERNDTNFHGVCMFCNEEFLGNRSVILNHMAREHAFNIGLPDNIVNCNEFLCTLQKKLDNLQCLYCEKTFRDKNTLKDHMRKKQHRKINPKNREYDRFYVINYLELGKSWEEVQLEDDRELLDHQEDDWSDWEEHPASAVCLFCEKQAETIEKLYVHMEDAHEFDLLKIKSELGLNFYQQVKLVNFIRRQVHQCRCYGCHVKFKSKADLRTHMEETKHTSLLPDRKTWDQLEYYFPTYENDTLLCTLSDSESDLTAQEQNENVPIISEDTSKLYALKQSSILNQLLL
B4: Beta-taxilin (Homo sapiens), Q8N3L3 (parent)
chain: MEANHSEQLSAERQSTPPGDSSSLPSHNGLEKEDGQDSPTPVQPPEKEASVHPDISEELNRQLEDIINTYGSAASTAGKEGSARASEQPENAESPDNEDGDCEETTEEAGREPVASGEPPTVKEPVSNKEQKLEKKILKGLGKEANLLMQNLNKLQTPEEKFDFLFKKYAELLDEHRTEQKKLKLLQKKQVQIQKEKDQLQGEHSRAILARSKLESLCRELQRHNKTLKEEALQRAREEEEKRKEITSHFQSTLTDIQGQIEQQSERNMKLCQENTELAEKLKSIIDQYELREEHLDKIFKHRELQQKLVDAKLEQAQEMMKEAEERHKREKEYLLNQAAEWKLQAKVLKEQETVLQAQLTLYSGRFEEFQSTLTKSNEVFATFKQEMDKTTKKMKKLEKDTATWKARFENCNKALLDMIEEKALRAKEYECFVMKIGRLENLCRALQEERNELHKKIRDAEISEKDDQSQHNSDEEPESNVSVDQEIDAEEVNSVQTAVKNLATAFMIIHHPESTPHQSKETQPEIGSSQESADAALKEPEQPPLIPSRDSESPLPPLTPQAEAEGGSDAEPPSKASNSPAGLGAETQCEGLPVGAQADQASWKPEAEASGQAPQAPTEASLQKMEADVPAPACAAEEHVAAMVPACEPSRQPPRAAAEELPVGASAGPQPRNVADTNLEGVD
partner: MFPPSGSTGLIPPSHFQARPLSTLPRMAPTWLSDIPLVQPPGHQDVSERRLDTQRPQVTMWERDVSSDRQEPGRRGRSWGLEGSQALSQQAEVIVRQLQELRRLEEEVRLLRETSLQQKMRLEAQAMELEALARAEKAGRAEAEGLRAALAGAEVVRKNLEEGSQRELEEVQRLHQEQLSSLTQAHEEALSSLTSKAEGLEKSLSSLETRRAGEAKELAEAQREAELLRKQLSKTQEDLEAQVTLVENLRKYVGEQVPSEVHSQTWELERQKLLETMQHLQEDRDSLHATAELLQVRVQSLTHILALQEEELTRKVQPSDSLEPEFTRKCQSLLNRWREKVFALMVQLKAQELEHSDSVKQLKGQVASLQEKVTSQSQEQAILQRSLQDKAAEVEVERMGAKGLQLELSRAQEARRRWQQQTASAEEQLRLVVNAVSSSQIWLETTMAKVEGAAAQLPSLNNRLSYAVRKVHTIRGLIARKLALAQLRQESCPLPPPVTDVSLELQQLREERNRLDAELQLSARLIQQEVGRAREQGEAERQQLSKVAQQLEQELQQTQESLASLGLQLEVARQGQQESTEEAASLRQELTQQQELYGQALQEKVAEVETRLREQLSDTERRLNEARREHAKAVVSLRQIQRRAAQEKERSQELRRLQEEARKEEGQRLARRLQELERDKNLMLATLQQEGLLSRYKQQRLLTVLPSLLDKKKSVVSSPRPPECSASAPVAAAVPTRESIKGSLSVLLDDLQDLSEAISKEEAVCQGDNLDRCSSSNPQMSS
B5: Cysteine-rich secretory protein 2 (Homo sapiens), P16562 (parent)
chain: MALLPVLFLVTVLLPSLPAEGKDPAFTALLTTQLQVQREIVNKHNELRKAVSPPASNMLKMEWSREVTTNAQRWANKCTLQHSDPEDRKTSTRCGENLYMSSDPTSWSSAIQSWYDEILDFVYGVGPKSPNAVVGHYTQLVWYSTYQVGCGIAYCPNQDSLKYYYVCQYCPAGNNMNRKNTPYQQGTPCAGCPDDCDKGLCTNSCQYQDLLSNCDSLKNTAGCEHELLKEKCKATCLCENKIY
partner: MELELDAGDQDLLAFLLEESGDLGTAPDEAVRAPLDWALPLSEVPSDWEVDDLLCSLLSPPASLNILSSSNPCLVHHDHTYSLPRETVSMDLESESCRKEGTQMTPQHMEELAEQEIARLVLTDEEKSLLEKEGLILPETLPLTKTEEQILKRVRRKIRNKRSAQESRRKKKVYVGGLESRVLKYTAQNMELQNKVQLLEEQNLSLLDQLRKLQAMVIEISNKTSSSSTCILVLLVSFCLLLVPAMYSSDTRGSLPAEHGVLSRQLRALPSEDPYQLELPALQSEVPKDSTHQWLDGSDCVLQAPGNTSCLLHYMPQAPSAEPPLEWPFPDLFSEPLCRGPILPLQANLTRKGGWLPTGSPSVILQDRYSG
B6: Defensin-6 (Homo sapiens), Q01524 (parent)
chain: MRTLTILTAVLLVALQAKAEPLQAEDDPLQAKAYEADAQEQRGANDQDFAVSFAEDASSSLRALGSTRAFTCHCRRSCYSTEYSYGTCTVMGINHRFCCL

Variants of: B1
Conditions: with mtg8_human RUNX1T1, Q06455

Row | effect of a mutation on the interaction | Variant
1 | with no effect | I11M
2 | with no effect | V31A
3 | with no effect | A174V
4 | with no effect | L483R
5 | with no effect | G64R
6 | with no effect | N479S

Variants of: B2
Conditions: with ca094_human C1orf94, Q6P1W5

Row | effect of a mutation on the interaction | Variant
7 | with no effect | V29A

Variants of: B3
Conditions: with zn277_human ZNF277, Q9NRM2

Row | effect of a mutation on the interaction | Variant
8 | with no effect | E50K

Variants of: B4
Conditions: with cchcr_human CCHCR1, Q8TD31

Row | Variant | effect of a mutation on the interaction
9 | I527T | with no effect

Variants of: B5
Conditions: with creb3_human CREB3, O43889

Row | effect of a mutation on the interaction | Variant
10 | with no effect | C196R

Variants of: B6
Conditions: with ubql1_human UBQLN1, Q9UMX0
ubql1_human UBQLN1, Q9UMX0, sequence (Q9UMX0 whole entry): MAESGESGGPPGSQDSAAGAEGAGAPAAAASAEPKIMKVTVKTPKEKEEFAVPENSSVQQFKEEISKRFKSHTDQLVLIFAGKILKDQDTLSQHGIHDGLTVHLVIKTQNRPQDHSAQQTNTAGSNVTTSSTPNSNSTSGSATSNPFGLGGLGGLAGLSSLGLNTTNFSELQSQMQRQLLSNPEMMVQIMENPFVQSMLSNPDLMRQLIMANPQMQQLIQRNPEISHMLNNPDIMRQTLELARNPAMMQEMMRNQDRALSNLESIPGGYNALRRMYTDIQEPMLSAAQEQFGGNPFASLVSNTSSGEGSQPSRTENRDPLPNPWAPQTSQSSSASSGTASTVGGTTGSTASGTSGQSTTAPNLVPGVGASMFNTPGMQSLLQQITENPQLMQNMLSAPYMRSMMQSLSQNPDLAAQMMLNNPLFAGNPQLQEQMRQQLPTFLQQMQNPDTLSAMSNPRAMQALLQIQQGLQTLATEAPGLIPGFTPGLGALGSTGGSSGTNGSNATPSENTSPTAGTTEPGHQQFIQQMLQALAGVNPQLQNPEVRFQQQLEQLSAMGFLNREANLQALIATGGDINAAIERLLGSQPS

Row | effect of a mutation on the interaction | Variant
11 | with no effect | D46E
